Measurements taken from patent publication US9605064B2, “Methods and compositions for treatment of skin disorders” (AbbVie Biotechnology Ltd, priority 2006, dated 2017).
Marks after values point to notes of the source that are not given here.

Experiments:
[1] = test system: patients with moderate to severe chronic plaque psoriasis; assay: DLQI, Phase II 12-week placebo-controlled trial with 48-week extension; assay type: in vivo, human; conditions: for patients who achieved DLQI=0: pooled arms
Source text: The DLQI is a validated instrument used to measure disease impact on daily function.
The DLQI is a validated instrument used to assess dermatologic-related functional limitations, and was used as the patient related outcomes (PRO) measure. The DLQI consists of ten items and an overall scoring range of 0-30, where higher scores represent greater quality of life impairment and lower scores represent lower quality of life impairment. The DLQI also includes well-established properties of reliability and validity for the DLQI total score in a dermatology setting and measures six subcategories: symptoms and feelings, daily activities, leisure, work/school, personal relationships, and treatment.
Patients who discontinued before the time point were not included in this analysis. Ranges of DLQI scores were evaluated for their correspondence to categories of disease impact and are described below in Table 1.
PROs were assessed using the DLQI. The DLQI is a validated instrument used to assess dermatologic-related functional limitations.

[2] = test system: adult patients with moderate to severe chronic plaque psoriasis; assay: Adverse events, REVEAL 52-week Phase III trial
[3] = patients with PASI 75-99, Week 60
[4] = patients with PASI 100, Week 60
[5] = Adalimumab Treatment Group (540.5 PY)
[6] = Adalimumab Treatment Group, 52 weeks (540.5 PYs)
[7] = Period A, adalimumab-treated patients

Adalimumab: a human anti-TNF mAb, described in U.S. Pat. No. 6,090,382 as D2E7 (HUMIRA, Abbott Laboratories)
mean DLQI score ([1]; baseline PASI ≧10 and DLQI >10, weekly, Week 60): 0.7
Mean improvement in DLQI ([1]; from dosage escalation to Week 60, 18 of the 30 patients who switched to weekly dosing): 2.1
patients who achieved DLQI=0 ([1]; of the total 106 patients receiving adalimumab at Week 60): 48 patients
patients who achieved DLQI=0 ([1]; patients receiving adalimumab at Week 60): approximately 45%
patients who achieved a DLQI=0 ([1]; patients with 50-74, Week 60): 28%
mean change in DLQI from baseline ([1]; patients with PASI 50-74, Week 60): −8
mean change in DLQI from baseline [1, 3]: −11.5
patients who achieved a DLQI=0 [1, 3]: 37%
mean change in DLQI from baseline [1, 4]: −11.1
patients who achieved a DLQI=0 [1, 4]: 79%
mean change in DLQI from baseline ([1]; patients with PASI<50, Week 60): −6
patients with change from large/extremely large DLQI impact at baseline to no/small impact ([1]; placebo patients switched to adalimumab at week 12, week 24): 67%
patients with change from large/extremely large DLQI impact at baseline to no/small impact ([1]; placebo patients switched to adalimumab at week 12, week 36): 79%
patients with change from large/extremely large DLQI impact at baseline to no/small impact ([1]; placebo patients switched to adalimumab at week 12, week 60): 71%
patients with change from large/extremely large DLQI impact at baseline to no/small impact ([1]; randomized to adalimumab, week 12): 85%
lymphomas ([2]; 52-week study): no lymphomas were diagnosed
opportunistic infection ([2]; 52-week study): One case of oral candidiasis
tuberculosis ([2]; 52-week study, patient PPD+ve at baseline, non-compliant with INH prophylaxis): one case of presumptive tuberculosis
Allergic Reaction, rate [2, 5]: 0.002 Event/PY
Congestive Heart Failure, rate [2, 5]: 0.002 Event/PY
Demyelinating Disorder, rate [2, 5]: 0 Event/PY
Injection Site Reaction, rate [2, 5]: 0.017 Event/PY
Lupus-like Syndrome, rate [2, 5]: 0 Event/PY
Lymphoma, rate [2, 5]: 0 Event/PY
Malignancies, excluding NMSC + lymphoma, rate [2, 5]: 0.004 Event/PY
Non-melanoma skin cancers, rate [2, 5]: 0.013 Event/PY
Tuberculosis (TB), rate [2, 5]: 0.002 Event/PY
AEs leading to withdrawal, rate [2, 6]: 0.078 Event/PY
Any AE, rate [2, 6]: 3.991 Event/PY
Serious AEs, rate [2, 6]: 0.061 Event/PY
Allergic Reaction, rate ([2]; Period A (250.2 PY)): 0.004 Event/PY
Congestive Heart Failure, rate ([2]; Period A (250.2 PY)): 0.004 Event/PY
Demyelinating Disorder, rate ([2]; Period A (250.2 PY)): 0 Event/PY
Injection Site Reaction, rate ([2]; Period A (250.2 PY)): 0.276 Event/PY
Lupus-like Syndrome, rate ([2]; Period A (250.2 PY)): 0 Event/PY
Lymphoma, rate ([2]; Period A (250.2 PY)): 0 Event/PY
Malignancies, excluding NMSC + lymphoma, rate ([2]; Period A (250.2 PY)): 0.008 Event/PY
Non-melanoma skin cancers, rate ([2]; Period A (250.2 PY)): 0.016 Event/PY
Tuberculosis (TB), rate ([2]; Period A (250.2 PY)): 0 Event/PY
AEs leading to withdrawal, rate ([2]; Period A (250.2 PYs)): 0.072 Event/PY
Any AE, rate ([2]; Period A (250.2 PYs)): 4.616 Event/PY
Serious AEs, rate ([2]; Period A (250.2 PYs)): 0.068 Event/PY
AEs leading to withdrawal, percentage ([2]; Period A (N = 814)): 1.7%
Allergic Reaction, percentage ([2]; Period A (N = 814)): 1%
Any AE, percentage ([2]; Period A (N = 814)): 62.2‡ %
Congestive Heart Failure, percentage ([2]; Period A (N = 814)): 1%
Demyelinating Disorder, percentage ([2]; Period A (N = 814)): 0%
Injection Site Reaction, percentage ([2]; Period A (N = 814)): 6.9%
Lupus-like Syndrome, percentage ([2]; Period A (N = 814)): 0%
Lymphoma, percentage ([2]; Period A (N = 814)): 0%
Malignancies, excluding NMSC + lymphoma, percentage ([2]; Period A (N = 814)): 0.2%
Non-melanoma skin cancers, percentage ([2]; Period A (N = 814)): 0.5%
Opportunistic Infections, excluding TB, percentage ([2]; Period A (N = 814)): 0%
Serious AEs, percentage ([2]; Period A (N = 814)): 1.8%
Serious Infectious AEs, percentage ([2]; Period A (N = 814)): 0.6%
Severe Infectious AEs, percentage ([2]; Period A (N = 814)): 0.7%
Tuberculosis (TB), percentage ([2]; Period A (N = 814)): 0%
Nasopharyngitis ([2]; Period A (N = 814), common AE ≧5%): 45 (5.3) n (%)
patients with serious AEs ([2]; Period A (weeks 0-16)): 1.8%
Nasopharyngitis [2, 7]: 5.3%
Sinusitis [2, 7]: 2.7%
upper respiratory tract infections [2, 7]: 7.2%
